Legend:
[1] = biological target: RaxX21-sY (tyrosine sulfated synthetic 21-residue derivative of RaxX, residues 35-55) (Xanthomonas oryzae pv. oryzae); experiment: MST
[2] = biological target: RaxX21-nY (non-sulfated synthetic 21-residue derivative of RaxX, residues 35-55) (Xanthomonas oryzae pv. oryzae); experiment: MST

B1: XA21 extracellular domain (XA21^ECD; XA21 residues 23-649) (domain or fragment)
chain: SDDDGDAAGDELALLSFKSSLLYQGGQSLASWNTSGHGQHCTWVGVVCGRRRRRHPHRVVKLLLRSSNLSGIISPSLGNLSFLRELDLGDNYLSGEIPPELSRLSRLQLLELSDNSIQGSIPAAIGACTKLTSLDLSHNQLRGMIPREIGASLKHLSNLYLYKNGLSGEIPSALGNLTSLQEFDLSFNRLSGAIPSSLGQLSSLLTMNLGQNNLSGMIPNSIWNLSSLRAFSVRENKLGGMIPTNAFKTLHLLEVIDMGTNRFHGKIPASVANASHLTVIQIYGNLFSGIITSGFGRLRNLTELYLWRNLFQTREQDDWGFISDLTNCSKLQTLNLGENNLGGVLPNSFSNLSTSLSFLALELNKITGSIPKDIGNLIGLQHLYLCNNNFRGSLPSSLGRLKNLGILLAYENNLSGSIPLAIGNLTELNILLLGTNKFSGWIPYTLSNLTNLLSLGLSTNNLSGPIPSELFNIQTLSIMINVSKNNLEGSIPQEIGHLKNLVEFHAESNRLSGKIPNTLGDCQLLRYLYLQNNLLSGSIPSALGQLKGLETLDLSSNNLSGQIPTSLADITMLHSLNLSFNSFVGEVPTIGAFAAASGISIQGNAKLCGGIPDLHLPRCCPLLENRK
[1]
  Kd: 20 nM
[2]
  Kd: 400 nM

From paper doi:10.1101/442517 (bioRxiv, 2018)
